Our source for the EC50 values is patent US20140199318A1.

The experiment concerns the target patient IgG preparation from the immunoadsorption column regenerate of an α1-AR agAAB positive patient with mild vascular dementia. Briefly: competition ELISA: free loop1 peptide (0.3 nM to 5 µM) preincubated with patient IgG, binding to immobilised loop1 peptide read. A general note: In an ELISA, binding on a coated surface is turned into a signal by an enzyme label.

One may read the EC50 as the concentration needed to bring the measured effect to its halfway point. A lower EC50 goes with a more potent agent. In turn, LGYWAFGRVFCN [free (soluble) synthetic peptide corresponding to extracellular loop1 of the human α1-AR] showed an EC50 of 30 nM.
